The target in data set [1] is GFP-MED15PP (GFP-MED15CC with five Pro substitutions in the MED15 coiled-coil region). The data set is described as follows: synchronous light scattering (self-association / aggregation). To be noted: 5 μM protein, 9 hours at 37 °C without agitation in 20 mM Tris pH 7.5 and 150 mM NaCl; parent: est. 620; read off a plot.
Data set [2] has the same target. As to the kind of experiment: GFP fluorescence of supernatant fraction (self-association / aggregation). Particulars: 5 μM protein, 9 hours at 37 °C without agitation in 20 mM Tris pH 7.5 and 150 mM NaCl; parent: est. 0.50; read off a plot.
Data set [3] deals with the molecule itself. The data set is described as follows: SEC; 2 mg/ml purified protein on Superdex 200 HR 10/30; 20 mM TrisHCl pH 7.4, 150 mM NaCl, 10% glycerol.

The values that follow come from PMC7997880, “MED15 prion-like domain forms a coiled-coil responsible for its amyloid conversion and propagation” (Communications Biology, 2021).

As for “GFP-MED15CC (human MED15 prion-like domain, MED15-PrLD, residues 141-316, fused at the C-terminus of GFP) MED15PP (five Pro substitutions at heptad 'a' positions; residues not printed in this figure)”, the response in data set [1] came to 180 a.u. Further, in data set [2], the other: Normalized GFP fluorescence (supernatant fraction) came out at 0.83.

B1: GFP-MED15CC (human MED15 prion-like domain, MED15-PrLD, residues 141-316, fused at the C-terminus of GFP) (domain or fragment)
chain: MAVVSTATPQTQLQLQQVALQQQQQQQQFQQQQQAALQQQQQQQQQQQFQAQQSAMQQQFQAVVQQQQQLQQQQQQQQHLIKLHHQNQQQIQQQQQQLQRIAQLQLQQQQQQQQQQQQQQQQALQAQPPIQQPPMQQPQPPPSQALPQQLQQMHHTQHHQPPPQPQQPPVAQNQPS
notes: Mediator complex subunit 15 (MED15), human, prion-like domain with the Q-rich coiled-coil and Pro-rich regions, residues 141-316; No cleavage step is described; Dimer by SEC, native PAGE and DLS; source: E. coli BL21 Rosetta, pET21b, purified from the soluble fraction (two HisTrap Ni steps, RNase treatment, PD10); not shown: GFP, N-terminal, kept
Usually stoichiometry N stands for a count of units in the complex or per binding partner. In the case of B1, in data set [3], the “stoichiometry N” value came to 2.
